For data set [1], the system named is gp41 (535-681)-His6.
In data set [2] the target is gp41 (535-681)-His6. The source holds these as a separate data set.

Where two headings read alike, the source gives them in different places.

As for “C-terminally truncated SlyD from E. coli”, in the data set on gp41 (535-681)-His6 [1], the “aggregation of gp41 after shift to neutral pH (UV spectra)” value is on record as “Comparable data have been obtained with ... a C-terminally truncated SlyD from E. coli”.

B1: trigger factor from Thermatoga maritima (protein)
chain: MEVKELERDKNRVVLEYVFGAEEIAQAEDKAVRYLNQRVEIPGFRKGRIPKNVLKMKLGEEFQEYTLDFLMDLIPDTLKDRKLILSPIVTERELKDVTARVVVEVHEEPEVRIGDISKIEVEKVDEEKVLEKYVERRIEDLRESHALLEPKEGPAEAGDLVRVNMEVYNEEGKKLTSREYEYVISEDEDRPFVKDLVGKKKGDVVEIEREYEGKKYTYKLEVEEVYKRTLPEIGDELAKSVNNEFETLEQLKESLKKEGKEIYDVEMKESMREQLLEKLPEIVEIEISDRTLEILVNEAINRLKREGRYEQIVSSYESEEKFREELKERILDDIKRDRVIEVLAQEKGISVNDEELEKEAEELAPFWGISPDRAKSLVKARQDLREELRWAILKRKVLDLLLQEVKVKVVEPKGEGDDSEGKEDN
As to B1, the “aggregation of gp41 after shift to neutral pH (UV spectra)” value with gp41 (535-681)-His6 [2] is listed as “Comparable data have been obtained with trigger factor from Thermatoga maritima”.

B2: FkpA from E. coli (mature FkpA) (protein)
chain: AEAAKPATAADSKAAFKNDDQKSAYALGASLGRYMENSLKEQEKLGIKLDKDQLIAGVQDAFADKSKLSDQEIEQTLQAFEARVKSSAQAKMEKDAADNEAKGKEYREKFAKEKGVKTSSTGLVYQVVEAGKGEAPKDSDTVVVNYKGTLIDGKEFDNSYTRGEPLSFRLDGVIPGWTEGLKNIKKGGKIKLVIPPELAYGKAGVPGIPPNSTLVFDVELLDVKPAPKADAKPEADAKAADSAKK
With B2, in the data set with gp41 (535-681)-His6 [2], the “aggregation of gp41 after shift from about pH 3.5 to pH 7.4 (UV spectra after 1 and 10 minutes; 1 µM gp41 with 2 µM or 4 µM FkpA)” value was “FkpA substantially reduces the aggregation of gp41 in a dose-dependent fashion”; the “suppression of aggregation (stray light in UV spectra) by a two-fold and a four-fold molar excess of the chaperone” value is “there is compelling spectroscopic evidence that FkpA efficiently solubilizes the gp41 ectodomain in a dose-dependent fashion”.

For the origin of these results see patent publication US20030176665A1.
